{
  "source": "the DeepSol protein solubility set",
  "data": [
    {"assay": "soluble on expression in E. coli; label from the status in PepcDB or PDB records", "values": [
      {"sequence": "MAGDPMSLPGLSAAADQTIKIGAQSMSESEIIASMLGQLIEHHTDLKTTTIKNLGSNAVQQQALMNGEIDIAATRYTGDALTGTLRMEPEKDPDKALALTQREFKKRYDLKWYDSYGFDNTYAFTVSKELADQYHLETVSDVKKWAPQLKLGVDNYWMKLKGNGYQDFTKTYGMTFGGTYPMQIGLVYDAVKSGKMDIVLAYSTDGRIKSYGLKMLKDDKQFFPPYDCSPVVPEKVLKEHPELEGIIKKMLGKIDTATMQELNYEVDGNLKEPSVVAKEYLEKHRYFESLEHHHHHH", "soluble on expression in E. coli": "soluble"},
      {"sequence": "MGSDKIHHHHHHMEFLIYSLPEEVLREEMLGNFSVALKLIDDFLKKDLPLLQRERLIYEKERIERLLEDYPFTEKEAMEKMREMFEGFSEGEFQYLMNEGVLDYIVVEGEKRFERRFFHNLAFVRSEYRERLRKDERSEKARRILHERLERLIKGEDPKRYRIRARITLKLKETSSKHRVWLPFPKESLQIESVKLLRTSHKSYYISPNDVPQRTIYFEGEDSTFFVEFEYIVREWVNHVDPERVSEKVAGFEEFLKEEPPHIVFTPKLRWLTQTVVGSEVNPYLKAKRIYDWITLNVRYSYVKPYALYENITDFVVNNLKGDCGFQALLFITMCRIAGVPARWQSGWYINPIFGSPHDWALFYVEPYGWLPADLSFGGARRDNESFRSFYFGNLDGFRMVANDGFMKDFDPKTRFVRSDPTDNQVGEAESEEKRLPFESTIEVISFEEV", "soluble on expression in E. coli": "not soluble"},
      {"sequence": "MGSDKIHHHHHHMAFIAGEIAAVLDLPEVLRRRLFVAALLHDVGALSPEEKMDLYASKVEECDTHCIRGARLLHQVDGFGEEGRVLRLHHATLRDGSLADVDEDTARLAQIVHLSDLVDRALDRGRYVLHQADTMCDMARDLARCDFEVSIVRAFLEVARREDFWLQMVLPTLGQHLEAISPCRGEMLDACGVEVHAGLVQGMVDFRSSFTAAHSAGVAEAADALGGYCDLSPERRVVLRIAGLLHDLGKMAVPTSILEKPSGLTKAEFAFMRQHTFHTYRLLRGVDGLGGMAAWAAYHHEKLDGSGYPFHLEGRALDPQARIIGVADIFTAMAEDRPYRKGQGREGVLRVLRDECTTGRVDGELVETVAESYPDMVGRVLDAQHAARSRFSDVLQPAGEKGAKADQST", "soluble on expression in E. coli": "not soluble"},
      {"sequence": "MGHHHHHHSHMIEVLTTTDSQKLLHQLNALLEQESRCQPKVCGLRLIESAHDNGLRMTARLRDFEVKDLLSLTQFFGFDTETFSLAVNLLDRFLSKMKVQPKHLGCVGLSCFYLAVKSIEEERNVPLATDLIRISQYRFTVSDLMRMEKIVLEKVCWKVKATTAFQFLQLYYSLLQENLPLERRNSINFERLEAQLKACHCRIIFSKAKPSVLALSIIALEIQAQKCVELTEGIECLQKHSKINGRDLTFWQELVSKCLTEYSSNKCSKPNVQKLKWIVSGRTARQLKHSYYRITHLPTIPEMVP", "soluble on expression in E. coli": "not soluble"},
      {"sequence": "PDGQDLAEARQRLDDSLEQAHQQHKALYERLMAYKTQPRMKTWLNELVWAHNQALWDAPTKVLAQGEPDPHLLLTTQLAPELLNTRKELMLISAYFVPGQEGLLYLTGRADAGVNVSLLTNSLEATDVPAVHGGYAPYRKALLEHGVKLYELRRQPGETETMRSSGPHLFRKSHSLVSSESSLHSKAMIFDRQKVFVGSFNFDPRSVLWNTEVGVLVDSPQLAEELRELTLQGMAPSLTYEARLEDGKVVWVTE", "soluble on expression in E. coli": "soluble"},
      {"sequence": "MHIADMTMFYAPASGGVRTYLEAKHRHLWHYPGIRHSVLVPGASYRQANGIHEVPAPPLPFGNGYRFPLRRGPWRKVLRNLQPDLIEVGDPYLTAWAALDARRRLDVPVIGFYHSDLPLLVSNRMGAWLGTNADNYVSKLYGHFDRVLAPSRVMAEKLMRLGVADVHVQPLGVDLVTFHPSNRDPGLRQELGLDEETRLLVFAGRGSREKNLPVLLDAIQRLGDGYHLLLVGSNMPTRVPRNTSVVDHFCDSREVARLLASSDALLHAGDQETFGLVALEAMASGIPVVAVRAGALAEIVPERCGVLCAPNNGDAMACAVRELFSHDVELRGQRARRHVERQHAWDAVVAGLLLHYHAVLGDSEARFPRYGLEHHHHHH", "soluble on expression in E. coli": "not soluble"},
      {"sequence": "MIIRNVRILICMNTIYYEAHNNLYLNLTNRCSADCIFCIRNFADGVYGYNLRLSKEPSTEEIIEALEGLDLSKYREIVFTGLGEPTLRLDVVLAVTRWLKNQGLRVRLDTNGHAALINPKLDVIAELKKAGLDSVSVSLNAESEEKYNKLCRPVHKNAYRAMLDFVRGAKEAGISTRVTVVKIPEIDVEKCRKVSEELGSDFHIRLLSEAASQEIRE", "soluble on expression in E. coli": "not soluble"},
      {"sequence": "DITGIPTGFTELDRMTAGFQRNDLIIVAARPSVGKTAFALNIAQNVATKTDESVAIFSLEMGAEQLVMRMLCAEGNINAQNLRTGNLTEEDWGKLTMAMGSLSNSGIYIDDTPGIRVSEIRAKCRRLKQESGLGMILIDYLQLIQGSGRSKDNRQQEVSEISRELKSIARELQVPVIALSQLSRGVEQRQDKRPMMSDI", "soluble on expression in E. coli": "not soluble"},
      {"sequence": "EERFGHLLHKVEWVSLGGGIHFTGEDYAVDAFCARLKAFSEKYGVQVYLEPGEAAITNSASLEVTVLDTLYNGKHLAVVDSSIEAHLLDLLIYRLNAKMAPNDGEHTYMVCGKSCLAGDIFGEYQFDRPLAIGDRLSFIDTAGYTMVKKNWFNGLKMPSIVVKQLDGSVEVVREFGFEDYVSSLS", "soluble on expression in E. coli": "not soluble"},
      {"sequence": "MGSDKIHHHHHHACDGILEGIYDSPAASDSNELGFIRTDPSTHSGTIYIDATDYRRWTFIDFHTQKVDSVNVTDSEQKEPEEWDIAVHRYDVKTNAGAVLETGFTGFSALRNADAMPEGAYVEDVWTTAKIAIDMSGMMDGNIVYMESYYNEELSKWLNVDKSNMPPTYTLSNKVYMVKLKDGTYAAVRLTNYMNASGVKGFMTIDYIYPFEL", "soluble on expression in E. coli": "not soluble"},
      {"sequence": "MIVLETERLNLRWFDIKDAPFILELVNDPAWIQFIGDKGVRNLEDAKNYIVNGPIDMYNKLRFGLYLVERKEDLTPLGMCGLIKRDSLEDVDIGFAFLETFRSKGYGYESASAIIEYGVQKLGMKRIVAITSIDNIASGKLLEKVGLRFEKIISDSGEDLKLFGYNA", "soluble on expression in E. coli": "not soluble"},
      {"sequence": "MEKFNNIAQLKDSGLKVTGPRLKILDLFETHAEEHLSAEDVYRILLEEGVEIGVATIYRVLTQFEQAGILQRHHFETGKAVYELDKGDHHDHIVCVKCGEVTEFHNPEIEALQDKIAEENGYRIVDHALYMYGVCSDCQAKGKR", "soluble on expression in E. coli": "not soluble"},
      {"sequence": "MSVPPGSIIVSDWHRCPDSREFFSKILHKKRRRKFGKTGVGKSALAARLAGLDLPKMHYETTGIETTVVFWPVRLKESGRVLFFRFELWDCGESAMRRFDHMLLSCKEKVDAILFLFSFTDRGSFDDLTNQISRITEPSDRVVKLVVGTKRDGERRDTFSGGVGSSGFPCGR", "soluble on expression in E. coli": "not soluble"},
      {"sequence": "MAHHHHHHMNEPDAALEGVVDLTSNNFDSSVGKDVAALVEFYAPWCGHCKNLVPEFAKLGRAAAGAKDKVLIAKVDATAQKDLATRFEVNGYPTILFFPAGSQKPEKYSEGREAKAFVSYLNNQIKGLNLFLPREHKYVMALDQSNFDKVALDEGKDAFVLFYAPWCGHCKRLHPSFESLAKVYQNEKDLIIANVDADDKSNSEVTKRYKVEGYPTLVFFPKGNKGNPVNYEEGRTLDDMIKFVNERTGKKRTSSGDFDKTVGVDETVTNLMKEMAQSSKNKEERERLLAQIQQAVSPKALGEGAMHYIRIATNVLENGHEYISKEHERVGRLLKGSLTGPKRDSLTIRFNILSAIKGE", "soluble on expression in E. coli": "soluble"},
      {"sequence": "MGHHHHHHSHMAAAFRKAAKSRQREHRERSQPGFRKHLGLLEKKKDYKLRADDYRKKQEYLKALRKKALEKNPDEFYYKMTRVKLQDGVHIIKETKEEVTPEQLKLMRTQDVKYIEMKRVAEAKKIERLKSELHLLDFQGKQQNKHVFFFDTKKEVEQFDVATHLQTAPELVDRVFNRPRIETLQKEKVKGVTNQTGLKRIAKERQKQYNCLTQRIEREKKLFVIAQKIQTRKDLMDKTQKVKVKKETVNSPAIYKFQSRRKR", "soluble on expression in E. coli": "soluble"},
      {"sequence": "MDPSSENNSPMVSPNDDKIVKITVSSVMQGVKQIVVEMKDKETVSILKNRIEQETEVLTNRQVLLFKGMELKDNNKTMTDCGINSDAKITMNVKMSTGIVTNPTTTDILLMMPPIFPTNQDQLRKEIKGMHTVHRKPKKMSGIDANASLWTPEKQMENEFTRNRMKTLLRRKKHAPILSGTPVDSEIGSAQTFSPVATPPGELSSPSTVSSHVSSGSEPESDAEVVTEKELKLFFDPPETIEEHKQCRRSMVLAPSSEEELLENLKKFEAERKTKCNTCFKKLSAAQQTMHCKCLRIFCDRHRHPKNHTCVIDYKQDGRNKLKKNNSKVGDGGWRKAKFES", "soluble on expression in E. coli": "not soluble"},
      {"sequence": "MAHHHHHHMDEGDHSDKESVGEEIVGEDHVEDKDGKPKRSYEKMVEEIKIENSKSFISKISEPLLKKKYFKYFLKILDYAYYAKVTAMQIIKTNEQIEERKKKILKNKFVVIGITQVVKAIRKGVDGIVFLAIDVFPIDIICHMPVFCEEHKIPYTFVTTKNKLARLCKLKRSVTCLFLPKPNIDIDKFEATVNEFSSKKKISNYAKLYEKMLSGVKKNHPFFQS", "soluble on expression in E. coli": "soluble"},
      {"sequence": "LHPDKCRAPHATEAFKALGNAYAVLSDTDKRRQYDQYGAEAANSHTPTTRRRGGGHGAFFEHDYAHGFEAEFTPEEIFNMFFGGGFPTEQVRRRARYAQQQQYHHYEQQQSPYGPLLQLLPLIAIMVIGLLAQLMVGEPAYSLHQTSKFTIKRLTADLRVPYFVRTDFETSYRGRIRQVEQQVEDDYIQNLRMNCYKEQNLKETKLYRARWMRDEAMMRDAERTPLPSCIRLNEIYSH", "soluble on expression in E. coli": "not soluble"},
      {"sequence": "MLNRFKSWRERGWVPIDAAAYELAWQRLGGSVATHPLVVARLSEFSGIPVRYLAWEQGGEVKAAIATWGRSLALSKDELKRHGKKGLFDLGNAELILPVAEGVQVPVRHRARYVSALNEGRISTLKSQTESLAMARTPEELSKKFRYNQRRELRLLEEAGGTVRPVSEFSSAELASMYCDLFQRRWGFEATGARDKAQVIELLRDLLIGSVVFLNDAPIAIQLVYRVEAPQWVSIEYVNGGVDPETRDFSPGSVLSFVNTQSAWEDARALGKALRFSFGRADREYKDRWCNPVPVFQL", "soluble on expression in E. coli": "not soluble"},
      {"sequence": "MSYLRALFFVLAMLATFGSMAGEPAHSDSGRDQVIRQILSDFWGNAKDVHGNAIQPASQEDRATVPISRAAAYRALEAGNLSGLAEWCGLDWEQHYLGLTEEARKMGMLDKQVAFFSVLHGAGQGAMVGSRSGQTCTAKQRTRIETLLLESQKEGLPSDALNGWQ", "soluble on expression in E. coli": "not soluble"},
      {"sequence": "MGSDKIHHHHHHMAFIKPEQQFNPDALHNLVIGIAADMGKHDSGMHHHHKAQLLYASAGCMRFSLADTQVVLPPTRAAWLPAGVEHHVTMRNVVAYRSLYFEPEAVASLPSEVTIFHVNPLLKALIDTMSYWPWNKPRYSQHNAFALFCEELENAKAENLALPLPQDKRLQTWLKQVLQQEMQPANLKEMAIEIGASERTISRIFSSQTGMAYQAWRQQWRLLSAIEQLAAGTSVAQAGFNLQFSSDSAFISFFKQYTGTTPAQYFK", "soluble on expression in E. coli": "not soluble"},
      {"sequence": "MSNTLFDDIFQVSEVDPGRYNKVCRIEAASTTQDQCKLTLDINVELFPVAAQDSLTVTIASSLNLEDTPANDSSATRSWRPPQAGDRSLADDYDYVMYGTAYKFEEVSKDLIAVYYSFGGLLMRLEGNYRNLNNLKQENAYLLIRR", "soluble on expression in E. coli": "soluble"},
      {"sequence": "MGSDKIHHHHHHMEINVGAVISANRKQKGITQQALADFVGVSKASVSKWETGQSYPDITLLPILAAYFDVSIDKLMAYDAQLSSTEIRRIYTSMKQAFETQPGDAVLKSIRNLIRRYYACYPFLLQMGLLILNHYDLLPGTSQTAKVTEYVNEARLLFVRVRQNSQKAQLTAKAVELEGYSLLLLQRPDDVLALLGEYVPEQLPADSLIAGAFQQKGDFRRAIATSQSGLMQDLSIIMSQLTNYMTLLKDDPNRLAATYQRGQAIAKAFDLATLNPAVWLNFQLAALNGFAQQDKTDEAVALLQEFTHVLTATKMPLTLHGDAYFDAIEPWLEQLDLGSQSPRVSGQAKQVLADFVLQNPALAKIRTLPVVQPLLAELKQVSGHR", "soluble on expression in E. coli": "not soluble"}
    ]}
  ]
}
